Measurements as given in the supplement of paper PMC10567573.

B1: MFF (parent)
chain: YTEGISQRMRVPEKLKVAPPNADL
B2: ZNF24 (parent)
chain: THTKEQILELVVLEQFVAILPKEL

Variants of: B1
Test: protein stability index of a GFP-peptide fusion (GPS, HEK-293T) (PSI 1-6); higher = more stable
Conditions: c terminus: a fixed tail appended
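Note: lentivirally expressed fusions sorted by FACS into six bins by GFP to DsRed ratio, PSI derived from sequencing read proportions per bin multiplied by bin number.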

Variant | protein stability index
YTEGISLRMRVPEKLKVAPPNADL [Q7L] | 2.77
YTEGISYRMRVPEKLKVAPPNADL [Q7Y] | 1.75
YTEGISFRMRVPEKLKVAPPNADL [Q7F] | 1.82
YTEGISQRMRVPEKLKNAPPNADL [V17N] | 2.85
YTEGISQRMRVPEKLKVAMPNADL [P19M] | 2.32
YTEGISQRMRVPEKLKVAIPNADL [P19I] | 2.52
YTEGISQRMRVPEKLKVAPPNDDL [A22D] | 3.34
YTEGISQRMRVPEKLKVAPPNNDL [A22N] | 2.92
YTEGISQRMRVPEKLKVAPPNSDL [A22S] | 2.87
YTEGISQRMRVPEKLKVAPPNTDL [A22T] | 2.91
YTEGISQRMRVPEKLKVAPTNADL [P20T] | 2.69
YTEGISQRMRVPEKLKVAPRNADL [P20R] | 2.75
YTEGISQRMRVPEKLKVAPINADL [P20I] | 2.75
YTEGISQRMRVPEKLKVAPHNADL [P20H] | 2.69
YTEGWSQRMRVPEKLKVAPPNADL [I5W] | 2.75
YTEGYSQRMRVPEKLKVAPPNADL [I5Y] | 2.41
YTEGESQRMRVPEKLKVAPPNADL [I5E] | 4.78
YTEGISQRMRVPEKLKVFPPNADL [A18F] | 2.2
YTEGISQRMRVPEKLKVWPPNADL [A18W] | 2.23
YTEGISQRMRVPEHLKVAPPNADL [K14H] | 2.88
YTEGISQRMRVPEVLKVAPPNADL [K14V] | 2.72

Variant | protein stability index
YTEGISQRMRVPEPLKVAPPNADL [K14P] | 3.32
YTEGISQRMRVPECLKVAPPNADL [K14C] | 3.07
YTEGISQRMRVPELLKVAPPNADL [K14L] | 2.87
YTEGISQRMRVPEELKVAPPNADL [K14E] | 3.17
YTEGISQRMRYPEKLKVAPPNADL [V11Y] | 2.6
YTEGISQRMRHPEKLKVAPPNADL [V11H] | 2.96
YTEGIKQRMRVPEKLKVAPPNADL [S6K] | 2.45
YTEGIRQRMRVPEKLKVAPPNADL [S6R] | 2.94
YTEGISQRMRVPEKFKVAPPNADL [L15F] | 2.53
YTEGISQRMRVPEKPKVAPPNADL [L15P] | 3.05
YTEGISQRMRVPEKEKVAPPNADL [L15E] | 3.36
ETEGISQRMRVPEKLKVAPPNADL [Y1E] | 4.55
FTEGISQRMRVPEKLKVAPPNADL [Y1F] | 2.52
GTEGISQRMRVPEKLKVAPPNADL [Y1G] | 4.57
YTCGISQRMRVPEKLKVAPPNADL [E3C] | 2.28
YTPGISQRMRVPEKLKVAPPNADL [E3P] | 2.29
YTSGISQRMRVPEKLKVAPPNADL [E3S] | 2.54
YTRGISQRMRVPEKLKVAPPNADL [E3R] | 3.03
YSEGISQRMRVPEKLKVAPPNADL [T2S] | 3.81
YTEGISQRMRVPEKLKVAPPNANL [D23N] | 2.65
YTEGISQRMRVPEKLKVAPPNAYL [D23Y] | 2.57

Variant | protein stability index
YTEGISQRMRVPEKLKVAPPNALL [D23L] | 2.02
YTEGISQRMRVPEKLKVAPPNACL [D23C] | 2.47
YTEGISQRWRVPEKLKVAPPNADL [M9W] | 2.01
YTEGISQRYRVPEKLKVAPPNADL [M9Y] | 2.57
YTEGISQRRRVPEKLKVAPPNADL [M9R] | 2.54
YTEGISQRMTVPEKLKVAPPNADL [R10T] | 2.6
YTEGISQRMWVPEKLKVAPPNADL [R10W] | 3.33
YTEGISQRMRVPRKLKVAPPNADL [E13R] | 2.9
YTEHISQRMRVPEKLKVAPPNADL [G4H] | 3.46
YTERISQRMRVPEKLKVAPPNADL [G4R] | 3.72
YTEGISQRMRVPEKLRVAPPNADL [K16R] | 2.34
YTEGISQRMRVPEKLHVAPPNADL [K16H] | 3.21
YTEGISQRMRVPEKLWVAPPNADL [K16W] | 2.49
YTEGISQRMRVHEKLKVAPPNADL [P12H] | 2.77
YTEGISQRMRVVEKLKVAPPNADL [P12V] | 2.64
YTEGISQRMRVCEKLKVAPPNADL [P12C] | 2.14
YTEGISQRMRVSEKLKVAPPNADL [P12S] | 2.53
YTEGISQRMRVIEKLKVAPPNADL [P12I] | 2.21
YTEGISQRMRVMEKLKVAPPNADL [P12M] | 2.59
YTEGISQRMRVAEKLKVAPPNADL [P12A] | 3.06

Variants of: B2
Test: as above
Conditions: c terminus: a fixed tail appended

Variant | protein stability index
THTKEQILELVVLEQFVAILPKEK [L24K] | 2.33
THTKEQILELVVLEQFVAILPKEF [L24F] | 3.54
THTKEQILELVVLEQFVAILPKEW [L24W] | 2.54
THTKEQILELVVLEQFVAILPKEH [L24H] | 2.66
THTKEQILELVVLEQFVAILPKEV [L24V] | 4.07
THTKEQILELVVLEQFVAILPKES [L24S] | 2.86
THTKEQILELVVLEQFVAILPKEP [L24P] | 4.16
THTKEQILELVVLEQFVAILPKEE [L24E] | 1.7
THTKEQILELVVLEQFVAILPKEY [L24Y] | 3.41
THTKEQILELVVLEQFVAILPKEI [L24I] | 2.4
THTKEQILELVVLEQFVAILPKEG [L24G] | 2.16
THTKEQILELVVLEQFVAILPKER [L24R] | 2.47
THTKEQILELVVLEQFVAILPKED [L24D] | 1.67
THTKEQILELVVLEQFVAILPKEC [L24C] | 2.88
THTKEQILELVVLEQFVAILPKET [L24T] | 2.7
THTKEQILELVVLEQFVAILPKEN [L24N] | 1.06

Variant | protein stability index
THTKEQILELVVLEQFVAILPKEM [L24M] | 2.8
THTKEQILELVVLEQFVAILPKEA [L24A] | 2.57
THTKEQILELVVLEQFVAILPKEQ [L24Q] | 1.81
THTKEQILELVVLEQFVTILPKEL [A18T] | 2.2
THTKEQILELVVLEQFVSILPKEL [A18S] | 1.95
THTKEQILELVVLEQFVPILPKEL [A18P] | 2.48
THTKEQILELVVLEQFVFILPKEL [A18F] | 1.44
THTKEQILELVVLEQFVKILPKEL [A18K] | 2.49
THTKEQILELVVLEQFVQILPKEL [A18Q] | 2.48
THTKEQILELVVLEQFVHILPKEL [A18H] | 3.02
THTKEQILELVVLEQFVWILPKEL [A18W] | 2.51
THTKEQILELVVLEQFVGILPKEL [A18G] | 2.88
THTKEQILELVVLEQFVRILPKEL [A18R] | 2.05
THTKEQILELVVLEQFVNILPKEL [A18N] | 2.67
THTKEQILELVVLEQFVMILPKEL [A18M] | 1.65
THTKEQILELVVLEQFVVILPKEL [A18V] | 2.58
